Assay results from paper PMC7764042, “Interferon Beta Activity Is Modulated via Binding of Specific S100 Proteins” (International Journal of Molecular Sciences, 2020).

B1: recombinant human S100A1 (natural protein)
chain: GSELETAMETLINVFHAHSGKEGDKYKLSKKELKELLQTELSGFLDAQKDVDAVDKVMKELDENGDGEVDFQEYVVLVAALTVACNNFFWENS
notes: human S100A1, Swiss-Prot P23297, gene cloned into pHUE between SacII and HindIII; Made as a ubiquitin-S100 chimera and cut with Usp2; also called S10A1; source: E. coli BL21 (DE3) with pLacIRARE, purified (IMAC, Usp2 cleavage, anion exchange, gel filtration)
B2: recombinant human S100A4 (natural protein)
chain: not shown
notes: human S100A4, Swiss-Prot P26447, gene cloned into pHUE between SacII and HindIII; Made as a ubiquitin-S100 chimera and cut with Usp2; also called S10A4; source: E. coli BL21 (DE3) with pLacIRARE, purified (IMAC, Usp2 cleavage, anion exchange, gel filtration)
B3: recombinant human S100A8 (natural protein, UniProt P05109 1-93, looked up)
chain: MLTELEKALNSIIDVYHKYSLIKGNFHAVYRDDLKKLLETECPQYIRKKGADVWFKELDINTDGAVNFQEFLILVIKMGVAAHKKSHEESHKE
notes: human S100A8, Swiss-Prot P05109, gene cloned into pHUE between SacII and HindIII; Made as a ubiquitin-S100 chimera and cut with Usp2; also called S10A8; source: E. coli BL21(DE3)-RIL, purified (IMAC, Usp2 cleavage, anion exchange, gel filtration)
B4: recombinant human S100A7 (natural protein, UniProt P31151 1-101, looked up)
chain: MSNTQAERSIIGMIDMFHKYTRRDDKIEKPSLLTMMKENFPNFLSACDKKGTNYLADVFEKKDKNEDKKIDFSEFLSLLGDIATDYHKQSHGAAPCSGGSQ
notes: human S100A7, Swiss-Prot P31151, gene cloned into pHUE between SacII and HindIII; Made as a ubiquitin-S100 chimera and cut with Usp2; also called S10A7; source: E. coli BL21(DE3)-RIL, purified (IMAC, Usp2 cleavage, anion exchange, gel filtration)
B5: recombinant human S100A15 (S100A7A) (natural protein, UniProt Q86SG5 1-101, looked up)
chain: MSNTQAERSIIGMIDMFHKYTGRDGKIEKPSLLTMMKENFPNFLSACDKKGIHYLATVFEKKDKNEDKKIDFSEFLSLLGDIAADYHKQSHGAAPCSGGSQ
notes: human S100A15 (S100A7A), Swiss-Prot Q86SG5, gene cloned into pHUE between SacII and HindIII; Made as a ubiquitin-S100 chimera and cut with Usp2; also called A1A7A; source: E. coli BL21(DE3)-RIL, purified (IMAC, Usp2 cleavage, anion exchange, gel filtration)
B6: recombinant human S100A9 (natural protein, UniProt P06702 1-114, looked up)
chain: MTCKMSQLERNIETIINTFHQYSVKLGHPDTLNQGEFKELVRKDLQNFLKKENKNEKVIEHIMEDLDTNADKQLSFEEFIMLMARLTWASHEKMHEGDEGPGHHHKPGLGEGTP
notes: human S100A9, Swiss-Prot P06702, gene cloned into pET-11a between NdeI and BamHI; also called S10A9; source: E. coli BL21(DE3)pLysS, purified (ammonium sulfate, anion exchange, cation exchange, gel filtration)
B7: recombinant human S100A14 (natural protein, UniProt Q9HCY8 1-104, looked up)
chain: MGQCRSANAEDAQEFSDVERAIETLIKNFHQYSVEGGKETLTPSELRDLVTQQLPHLMPSNCGLEEKIANLGSCNDSKLEFRSFWELIGEAAKSVKLERPVRGH
notes: human S100A14, Swiss-Prot Q9HCY8, gene cloned into pHUE between SacII and HindIII; Made as a ubiquitin-S100 chimera and cut with Usp2; also called S10AE; source: E. coli BL21(DE3)-RIL, purified (IMAC, Usp2 cleavage, second IMAC, gel filtration)
B8: recombinant human S100A11 (natural protein, UniProt P31949 1-105, looked up)
chain: MAKISSPTETERCIESLIAVFQKYAGKDGYNYTLSKTEFLSFMNTELAAFTKNQKDPGVLDRMMKKLDTNSDGQLDFSEFLNLIGGLAMACHDSFLKAVPSQKRT
notes: human S100A11, Swiss-Prot P31949, gene cloned into pHUE between SacII and HindIII; Made as a ubiquitin-S100 chimera and cut with Usp2; also called S10AB; source: E. coli BL21 (DE3) with pLacIRARE, purified (IMAC, Usp2 cleavage, anion exchange, gel filtration)
B9: recombinant human S100A13 (natural protein, UniProt Q99584 1-98, looked up)
chain: MAAEPLTELEESIETVVTTFFTFARQEGRKDSLSVNEFKELVTQQLPHLLKDVGSLDEKMKSLDVNQDSELKFNEYWRLIGELAKEIRKKKDLKIRKK
notes: human S100A13, Swiss-Prot Q99584, gene cloned into pET-11a between NdeI and BamHI; also called S10AD
B10: recombinant human S100A12 (natural protein, UniProt P80511 1-92, looked up)
chain: MTKLEEHLEGIVNIFHQYSVRKGHFDTLSKGELKQLLTKELANTIKNIKDKAVIDEIFQGLDANQDEQVDFQEFISLVAIALKAAHYHTHKE
notes: human S100A12, Swiss-Prot P80511, gene cloned into pHUE between SacII and HindIII; Made as a ubiquitin-S100 chimera and cut with Usp2; also called S10AC; source: E. coli BL21 (DE3) with pLacIRARE, purified (IMAC, Usp2 cleavage, anion exchange, gel filtration)

Molecular target: the molecule itself
Experiment: SPR; estimate from the SPR data for 0.5 µM S100 analyte on immobilised IFN-β, 1 mM CaCl2; dimer to monomers, Ca^2+-loaded S100
Conditions: not given
Binder B1 has a Kd of no more than 0.5 µM. B2 gave a Kd of no more than 0.5 µM.

These binders were tested against T1, recombinant human interferon beta-1a (human, UniProt P01574 22-187) (assay: SPR; IFN-β immobilised on ProteOn GLH chip by amine coupling; Ca^2+-loaded S100 as analyte (0.25–5 µM S100A1, 0.5–5 µM S100A4/A6, 5 µM other S100); 25 °C; 10 mM HEPES, 150 mM NaCl, 0.01% TWEEN 20, pH 7.4, 1 mM CaCl2; heterogeneous ligand model). Conditions: both partners purified.
T1 construct: human interferon beta (interferon beta-1a), UniProt P01574; Pharmaceutical interferon beta-1a; also called IFN-β; Interferon-β; source: bought: Merck (Rebif), produced in CHO-K1 cells
For B3, the Kd was no less than 10 µM. Work on B4 yielded a Kd of no less than 10 µM. For B5, the Kd was no less than 10 µM. B6 was tested, and the Kd was no less than 10 µM. B7 was tested, and the Kd was no less than 10 µM. In the case of B8, the Kd is reported as no less than 10 µM. Work on B9 yielded a Kd of no less than 10 µM. Work on B10 yielded a Kd of no less than 10 µM.
